Test results taken from patent US12234269B2, “Osteogenic biomaterial” (Northeast Ohio Medical University, priority 2014, dated 2025).

T1: CD44 (Mus musculus, UniProt P15379)
T1 construct: biotinylated rOA added onto MC3T3-E1 cells; endogenous in cells; host or cells: MC3T3-E1
T1 sequence (P15379 23-778): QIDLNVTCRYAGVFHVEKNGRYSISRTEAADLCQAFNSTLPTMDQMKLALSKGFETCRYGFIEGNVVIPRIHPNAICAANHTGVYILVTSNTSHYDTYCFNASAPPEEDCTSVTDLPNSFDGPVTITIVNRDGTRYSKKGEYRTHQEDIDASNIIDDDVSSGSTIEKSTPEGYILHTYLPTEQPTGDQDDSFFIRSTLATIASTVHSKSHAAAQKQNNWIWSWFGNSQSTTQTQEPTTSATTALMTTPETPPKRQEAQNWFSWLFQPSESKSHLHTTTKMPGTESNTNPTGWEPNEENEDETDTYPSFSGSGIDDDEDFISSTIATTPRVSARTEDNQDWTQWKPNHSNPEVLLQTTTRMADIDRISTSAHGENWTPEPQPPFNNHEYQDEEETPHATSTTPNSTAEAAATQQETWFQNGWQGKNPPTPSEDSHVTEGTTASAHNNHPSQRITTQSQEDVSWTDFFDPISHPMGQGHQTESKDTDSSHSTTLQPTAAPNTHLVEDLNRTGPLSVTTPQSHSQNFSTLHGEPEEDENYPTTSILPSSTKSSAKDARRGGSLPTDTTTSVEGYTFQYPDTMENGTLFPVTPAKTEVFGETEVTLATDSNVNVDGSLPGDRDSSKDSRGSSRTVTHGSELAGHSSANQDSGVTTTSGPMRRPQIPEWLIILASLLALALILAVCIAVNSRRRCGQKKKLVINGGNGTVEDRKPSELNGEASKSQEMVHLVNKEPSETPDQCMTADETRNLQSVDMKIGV

B1: OA: 572 amino acid transmembrane glycoprotein encoded by the GPNMB gene; recombinant protein (R&D Systems) soaked into collagen sponge (protein, UniProt Q14956 23-572, looked up)
Transmembrane glycoprotein NMB: KRFHDVLGNERPSAYMREHNQLNGWSSDENDWNEKLYPVWKRGDMRWKNSWKGGRVQAVLTSDSPALVGSNITFAVNLIFPRCQKEDANGNIVYEKNCRNEAGLSADPYVYNWTAWSEDSDGENGTGQSHHNVFPDGKPFPHHPGWRRWNFIYVFHTLGQYFQKLGRCSVRVSVNTANVTLGPQLMEVTVYRRHGRAYVPIAQVKDVYVVTDQIPVFVTMFQKNDRNSSDETFLKDLPIMFDVLIHDPSHFLNYSTINYKWSFGDNTGLFVSTNHTVNHTYVLNGTFSLNLTVKAAAPGPCPPPPPPPRPSKPTPSLATTLKSYDSNTPGPAGDNPLELSRIPDENCQINRYGHFQATITIVEGILEVNIIQMTDVLMPVPWPESSLIDFVVTCQGSIPTEVCTIISDPTCEITQNTVCSPVDVDEMCLLTVRRTFNGSGTYCVNLTLGDDTSLALTSTLISVPDRDPASPLRMANSALISVGCLAIFVTVISLLVYKKHKEYNPIENSPGNVVRSKGLSVFLNRAKAVFFPGNQEKDPLLKNQEFKGVS

What was measured:
[1] = Osteogenic activity of the peptide fragment
Excerpt: A preferred osteoactivin active peptide fragment for use in the present invention is the amino acid sequence LAPFSRGDREKDPLLQDK (SEQ ID NO: 1). […] Accordingly, in some embodiments, shorter sections of SEQ ID NO: 1 consisting of 6 or 12 amino acids can be used.

[2] = CBC, CMP, urinalysis and histological sampling of OA-treated sheep; assay type: in vivo, sheep (Ovis aries)
Excerpt: Approval of the Northeast Ohio Medical University Institutional Animal Care and Use Committee (IACUC) was obtained prior to the start of this study. Six (6) male sheep (Ovis aries) between ages 2-3 years old were used, each with a critical size defect (25 mm in depth×11 mm in diameter) drilled into bilateral hind limb distal femurs. The surgical protocol utilized was based on previous work done to develop a model for cancellous bone healing (Malhotra et al, Front Surg. 2014 Sep. 8; 1:37). This method allowed for high quality standardization and sterility processes across each sheep. […] Martini et al., Comp Med. 2001 August; 51(4):292-9; Pearce et al., Eur Cell Mater. 2007 Mar. 2; 13:1-10. The procedures were performed by an orthopedic surgeon. Once under appropriate anesthesia, one femur defect (left hindlimb) was drilled with a cannulated acorn drill (Stryker) and packed with an PBS absorbable collagen sponge (Medline Industries) without OA protein and thus functioned as a control, while the other defect (right hindlimb) was filled with either a low dose (10 μg), or high dose (50 μg) recombinant OA-soaked collagen sponge (R&D Systems). Three sheep received the high dose OA while two received the low dose OA, and one was left as a control. The animals were allowed to recover and then terminated after a period of 10 weeks. […]

bone segmental defect = experiment: Local delivery in a model of bone segmental defect; assay type: in vivo
Excerpt: It is synthesized and secreted by osteoblasts where it acts as signaling molecule to promote osteoblast differentiation and function. […] Research has also shown that OA is involved in mouse and human stem cells differentiation to bone cells, and that OA is responsible to transdifferentiate muscle cells to bone forming osteoblasts. The receptor for OA in bone and mesenchymal stem cells is CD44. OA induces differentiation of mesenchymal stem cells to bone cells through CD44.

[3] = system: critical size defects in bilateral distal femurs; experiment: Sheep model for cancellous bone healing (critical size defect in distal femur, OA-soaked collagen sponge); assay type: in vivo, sheep (Ovis aries); conditions: for radiographic analysis: regeneration of bone at the defect site: vs control femurs
Excerpt: Thus, the sheep model provides a way to study the effect of OA on osteogenesis by inducing critical size defects into the long bones of the animals. […] Approval of the Northeast Ohio Medical University Institutional Animal Care and Use Committee (IACUC) was obtained prior to the start of this study. Six (6) male sheep (Ovis aries) between ages 2-3 years old were used, each with a critical size defect (25 mm in depth×11 mm in diameter) drilled into bilateral hind limb distal femurs. The surgical protocol utilized was based on previous work done to develop a model for cancellous bone healing (Malhotra et al, Front Surg. 2014 Sep. 8; 1:37). This method allowed for high quality standardization and sterility processes across each sheep. […] Martini et al., Comp Med. 2001 August; 51(4):292-9; Pearce et al., Eur Cell Mater. 2007 Mar. 2; 13:1-10. The procedures were performed by an orthopedic surgeon. Once under appropriate anesthesia, one femur defect (left hindlimb) was drilled with a cannulated acorn drill (Stryker) and packed with an PBS absorbable collagen sponge (Medline Industries) without OA protein and thus functioned as a control, while the other defect (right hindlimb) was filled with either a low dose (10 μg), or high dose (50 μg) recombinant OA-soaked collagen sponge (R&D Systems). Three sheep received the high dose OA while two received the low dose OA, and one was left as a control. The animals were allowed to recover and then terminated after a period of 10 weeks. The femurs were harvested for x-ray (General Electric) and μCT (Scanco) imaging. Blood and urine samples were collected for CBC, CMP and urinalysis (ANTECH Diagnostics). Tissue biopsies were taken from heart, lung, liver, spleen, kidney, thyroid gland, adrenal gland, and skeletal muscle for RNA and histological analyses during post-mortem dissection.

bone defect = conditions: at 4 weeks; none of the control animals showed complete bone fill; cited from earlier work
CD44 = target: T1, CD44; experiment: Binding of biotinylated rOA on MC3T3-E1 cells (immunofluorescence, immunoprecipitation, blot for CD44)
Excerpt: FIG. 3(A-C) provides images showing osteoactivin binds to CD44 in bone cells. (A) Silver staining and mass spectroscopy analysis of biotinylated rOA added onto MC3T3-E1 cells.

Row | Molecule | osteogenic activity [1] | adverse systemic effects per laboratory studies or histological sampling ([2]; administered locally, sheep) | CBC, CMP and urinalysis ([2]; control vs OA-treated sheep) | bone regeneration (bone segmental defect) | radiographs and μCT of the femur defect site ([3]; 50 μg OA, after 10 weeks, compared to control (FIG. 2)) | bone healing and regeneration (radiographic, μCT imaging and histological analysis) ([3]; OA-soaked absorbable collagen sponge vs defect only or collagen sponge alone, n=6) | Micro-CT bone volume and density of the regenerated area ([3]; OA-treated defect sites vs control, 10 weeks) | radiographic analysis: regeneration of bone at the defect site ([3]; high dose (50 μg) recombinant OA-soaked collagen sponge, 10 weeks) | radiographic analysis: regeneration of bone at the defect site ([3]; low dose (10 μg) recombinant OA-soaked collagen sponge, 10 weeks) | animals showing complete bone fill (bone defect) [%] | Immunoprecipitation of biotinylated rOA pulled out with streptavidin beads and blotted for CD44 (CD44; MC3T3-E1 cells) | Immunofluorescence of CD44 and OA (CD44; bone cells)
1 | LAPFSRGDREKDPLLQDK (listed as Homo sapiens) [SEQ ID NO: 1] | demonstrated the osteogenic activity |  |  |  |  |  |  |  |  |  |  | 
2 | B1 |  | no apparent adverse systemic effects | no apparent abnormalities | stimulates bone regeneration | regenerated bone | significantly accelerated bone healing and regeneration | significant increase | complete regeneration of bone at the defect site | complete regeneration of bone at the defect site | 70 | OA-CD44 interaction | colocalization along the cell membrane
